# Results: the supplement of paper PMC12764529
# ± gives the half width of the 95% confidence interval.
# Experiment: folding stability dG unfold from chymotrypsin proteolysis; higher = more stable
# Procedure, shortened: (§1)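 Unfolding free energy was derived, per protease or combined, by relating Bayesian-fitted K50 values from sequencing counts to a sequence-predicted unfolded-state K50 and a shared folded-state K50. The underlying digests exposed cysteine-free mini-proteins under 80 residues, in a PA-tagged cDNA display construct, to trypsin and chymotrypsin at 11 threefold-diluted concentrations and to a no-protease condition. A filter kept only designs with AlphaFold2 dimer inter-PAE above 15.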
row,Sequence,folding stability dG unfold [kcal/mol]
1,SASSSTTTSSGTLEEVLQQVEDYLKANPNTLVTIAPPDGTTTTVDLSYSPSIAVNGDPSGLTTVTITNSSAG [r14_807_JUSTAS],0.932 ± 0.032
2,SAGGSKPIRVEIAVPPDVPLEELARRVEEELRELGFEVEVEEVSFLPEEGRVLLRFRDGAVAVIPNSAGGSA [r2_242_TrMRF],1.85 ± 0.062
3,SAGGKIRIDVQYNKNEGYITIRIRFNGNTREIPIPSPKQSPEDVREEAEEIAKYLQEEYNIKEVEIWSAGGS [r16_249_TrROS],2.34 ± 0.11
4,SAGMEVEYTLTFELPGGLALRVTAKVRFNPETNELEVLELKVELLPLPPAPPPFISPEEAEKNGLLPEESAG [r5_393_TrMRF],4.44 ± 0.27
5,SAGGPNKPIKIKIMIWRDPGGWYIAIRIPDGNTRMFKSPEQIKSILEKFPGLKIDEIEIIPPDQMKKLSAGG [r13_730_TrROS],2.23 ± 0.073
6,SAGGSAGGSSIEEEYAANPENVTVTLPSPGGTPASTITVGNAPVTVTPLPDGDSAVTLDPANKSAGGSAGGS [r12_805_JUSTAS],1.69 ± 0.035
7,SMKVEKLEDGTYIIVNEDGSITEIKVYPDKVEVKTYPVLYKMPDGRWFETKEEAEKFEEETGVPILEEDLSA [r9_660_TrMRF],0.887 ± 0.27
8,SAGGSAGGSTITFFFDNPEQIEKLIEELMDKNNVEVEVEPHPDNGMPMVTFTNPNNGKEITIMSAGGSAGGS [r12_635_TrROS],0.497 ± 0.23
9,SAGGKKKITIEVEKKEDGKEVKVKIKVDGKEIEITFPENMSKEELLEAAKKLAEENNIEIEEVEIYPSAGGS [r16_753_TrROS_Hall],1.54 ± 0.091
10,SAGRITIDPEDWRIEVKPPNGKKREISPDKIQELLREQKQKGKPPTAEEIAEKIMDEFPGYEVEIHPRSAGG [r19_46_TrROS],1.22 ± 0.073

# Experiment: folding stability dG unfold (combined trypsin and chymotrypsin); higher = more stable
# Procedure, shortened: as §1
row,Sequence,folding stability dG unfold [kcal/mol]
1,SAGGSATITIEVNGKPITIEFDKKNKTYTITLPNGKKVEVKVVDGELYITFANGEKRKISLKELKPSAGGSA [r15_448_TrROS_Hall],3.81 ± 0.17
2,SAGMKIEVKKKKDGKLEVEIEVKTKDGRTIRVKIYYDKKTKKFYIVEIEAESEEEKKKAEELLKKLLKSSAG [r5_266_TrROS_Hall],3.42 ± 0.12
3,SAGMMPLSHPEAREKAIEFAKKGYLVYVIEFENGESQVIVLESEEEIEELIKELPKPIKKIYVIPPLPESAG [r5_481_TrMRF],2.79 ± 0.089
4,SAGGSAGGSAGGGSVSGSTPLTLPDSPVTRYSYPDSLVTFVPEKGVVITVSGSSTTVALSAGGSAGGSAGGS [r10_559_JUSTAS],0.654 ± 0.11
5,SAGGSAGGSAKIRVGGEEIELPPGKPVMFRFPENGYMIKITIKPDPKENKWKIDELKVYPMDSAGGSAGGSA [r18_222_TrROS],1.46 ± 0.19
6,SAGGGSMVFVEFPQGGKTVRVDVDLEKGVLRVRFPGEGAVLEYPVRDPEAVVRELTPADVPVRAYPESAGGS [r8_95_JUSTAS],0.439 ± 0.072
7,SAGGDTFLMLHPHPVKDNGKDKPYYHIMVMKITEVEPDNGKPRLKMEMKMIHIPADDPDALKEAGIPISAGG [r13_670_TrROS],1.77 ± 0.16
8,SAGKKKKKPKVKEVIIVVKVENMTAEEIAKKLAEELNVEVTKVEVKDGYVTITLKDGSKIKIEVIPEEKSAG [r5_350_TrROS_Hall],1.58 ± 0.15
9,SAGGSAGGSAGEPKIIPIKLPENAKVEEFENPDGYPIKIFENPDNGEIWIVWPDGKIWPISAGGSAGGSAGG [r11_601_TrROS],0.93 ± 0.067
10,SAGGSAGGSSLEEIKAAAEEAVAAGHPVLTVTSGSGKVVTVEVGESPIESAGPLDGVTVTLTGSAGGSAGGS [r20_44_JUSTAS],0.723 ± 0.073
11,SASSSTTTSSGTLEEVLQQVEDYLKANPNTLVTIAPPDGTTTTVDLSYSPSIAVNGDPSGLTTVTITNSSAG [r14_807_JUSTAS],1.23 ± 0.09
12,SAGGSKPIRVEIAVPPDVPLEELARRVEEELRELGFEVEVEEVSFLPEEGRVLLRFRDGAVAVIPNSAGGSA [r2_242_TrMRF],1.86 ± 0.068
13,SAGGKIRIDVQYNKNEGYITIRIRFNGNTREIPIPSPKQSPEDVREEAEEIAKYLQEEYNIKEVEIWSAGGS [r16_249_TrROS],2.36 ± 0.16
14,SAGMEVEYTLTFELPGGLALRVTAKVRFNPETNELEVLELKVELLPLPPAPPPFISPEEAEKNGLLPEESAG [r5_393_TrMRF],4.5 ± 0.35
15,SAGGPNKPIKIKIMIWRDPGGWYIAIRIPDGNTRMFKSPEQIKSILEKFPGLKIDEIEIIPPDQMKKLSAGG [r13_730_TrROS],2 ± 0.079
16,SAGGSAGGSSIEEEYAANPENVTVTLPSPGGTPASTITVGNAPVTVTPLPDGDSAVTLDPANKSAGGSAGGS [r12_805_JUSTAS],1.4 ± 0.043
17,SMKVEKLEDGTYIIVNEDGSITEIKVYPDKVEVKTYPVLYKMPDGRWFETKEEAEKFEEETGVPILEEDLSA [r9_660_TrMRF],0.759 ± 0.23
18,SAGGSAGGSTITFFFDNPEQIEKLIEELMDKNNVEVEVEPHPDNGMPMVTFTNPNNGKEITIMSAGGSAGGS [r12_635_TrROS],0.54 ± 0.21
19,SAGGKKKITIEVEKKEDGKEVKVKIKVDGKEIEITFPENMSKEELLEAAKKLAEENNIEIEEVEIYPSAGGS [r16_753_TrROS_Hall],1.53 ± 0.15
20,SAGRITIDPEDWRIEVKPPNGKKREISPDKIQELLREQKQKGKPPTAEEIAEKIMDEFPGYEVEIHPRSAGG [r19_46_TrROS],1.06 ± 0.3
